Laboratory results as given in patent US20220175781A1, “CD40L COMPOSITIONS AND METHODS FOR TUNABLE REGULATION” (Obsidian Therapeutics, Inc., priority 2019, published 2022).

Tests used:
Type in all cases: cell-based
[1] = test system: CD8+ T cells; assay: Ligand dose response, % CD40L positive cells, CD8+ T cells
Protocol: Ligand dose response curve experiments were performed with increasing doses of ligand using OT-001662 and OT-001666 constructs in both CD4+ as well as CD8+ T cells.
The experiments were conducted using three different volumes of virus for transduction i.e. 0.5, 2 and 10 μL.

[2] = test system: Jurkat cells; assay: Surface expression of CD40L by FACS in lentivirally transduced Jurkat cells; conditions: for CD40L positive percent of live cells / Geometric Mean of CD40L fluorescent intensity: FACS
Protocol: 50,000 Jurkat cells were transduced with lentiviruses corresponding to the constructs. OT-001661, OT-001685, OT-001662, or OT-001666 and cultured for 48h. Cells were split and incubated with ligands for 24h before analysis by flow cytometry.
Jurkat cells were treated with one of the following: 1 μM Shield-1, 50 μM TMP, 1 μM Bazedoxifene (BZD) or vehicle control. Surface expression of CD40L was measured using FACS and the results are show in Table 9. All values were normalized to mode.

[3] = test system: HEK-Blue™ CD40 cells; assay: HEK-Blue CD40 SEAP reporter co-culture with transduced Jurkat cells; conditions: ligand 24 h (1 μM Shield-1, 50 μM TMP or 1 μM Bazedoxifene), recombinant soluble CD40L as standard
Protocol: Jurkat cells transduced with OT-001661, OT-001685, OT-001662, OT-001666, or OT-001667 were co-cultured with HEK-Blue™ CD40 cells (Invivogen, San Diego, Calif.). Cocultures were treated with ligands (1 μM Shield-1, 50 μM TMP, 1 μM Bazedoxifene (BZD) or vehicle control) for 24 hours and the secreted embryonic alkaline phosphatase (SEAP) reporter levels were measured in the media. All vehicle treated samples had background SEAP activity. Recombinant soluble CD40L was used as the standard in the experiments.

[4] = test system: CD8 positive T cells; assay: CD40L MFI by FACS in transduced CD8 positive T cells
Protocol: Regulation of ecDHFR (R12Y, Y100I) DRD based construct OT-001662 and ER (N413D) DRD based construct OT-001666 were tested in CD8 positive T cells. For OT-001662, expressing cells, ligand was added 6 days after viral transduction at a dose of 50 μM TMP. OT-001666 expressing cells were treated with 0.5 μM Bazedoxifene or vehicle control, 5 days after transduction. Approximately 15-30k cells were analyzed per sample by FACS. All samples were compared to empty vector control as well as the constitutively expressed construct, OT-001661. Table 11 provides the mean fluorescence intensities (MFIs) obtained with each sample.

[5] = test system: T cells; assay: Dose response of TMP, Bazedoxifene or Raloxifene, % CD40L positive T cells; conditions: T cells
Protocol: T cells were transduced with OT-001662 or OT-001666. On day 4, cells were treated with increasing doses of TMP for T cells expressing OT-001662. Cells expressing OT-001666 were treated either with increasing concentrations of Bazedoxifene or Raloxifene. The data are shown in Table 30 as the percentage of CD40L positive T cells.

[6] = test system: T cells (CD4+ and CD8+); assay: Regulation of CD40L in T cells by different drug responsive domains; conditions: Ligand N/A
[7] = test system: Monocyte derived dendritic cells (mDC); assay: Cytokine production in mDC-T cell co-culture (MSD); conditions: mDC-T cell co-culture 2 days
Text: In order to engage dendritic cells in an immune response, dendritic cells must be converted to a functional state by an antigen-specific CD4+ helper T cell. Activation of the dendritic cells may be followed by the activation of CD8+ T cells by the dendritic cells, a process referred to as dendritic cell licensing. Engagement of the CD40L expressed on the CD4+ cells with the CD40 on the dendritic cells can result in (i) dendritic cell stimulation-measured by expression of co-stimulatory and MHC molecules (ii) proinflammatory cytokine release (e.g. IL12, TNFα and INFγ) (iii) epitope spreading. To measure the effect of CD40L expression that is tuned by the biocircuits of the present disclosure, CD4+ T cells or Jurkat cells expressing any of the CD40L constructs described herein were co-cultured with dendritic cells.
Dendritic cell function in response to co-culture with T cells expressing CD40L was evaluated in the presence of ligand or corresponding vehicle control. Monocyte derived dendritic cells (mDC) (CD14+) were isolated from fresh blood and cultured for 5 days with IL-4 (7.5 ng/mL) and GM-CSF (20 ng/mL). The mDCs were frozen down after the 5 day culture. T cells were transduced with OT-001662 and expanded for 9 days before being frozen down. mDCs and T cells were thawed and co-cultured 1:10 DC: T cell ratio (i.e. 5×10^4 DCs: 5×10^5 T cells). mDC and T cells were co-cultured for 2 days before cells were collected for flow cytometry and supernatants were collected for cytokine analysis. For evaluation of regulated constructs, ligand (various doses of TMP) was added at the time initiating the co-culture and was kept in the co-culture for 2 days. Cytokines were analyzed by MSD after a single freeze thaw cycle. All cells were cultured in complete RPMI with 10% FBS during the course of the experiment. SR indicates stabilization ratio.

[8] = ligand 24 h (1 μM Shield-1 OT-001685, 50 μM TMP OT-001662, 1 μM Bazedoxifene OT-001666)
[9] = vehicle 24 h (Ethanol 0.2% OT-001685, DMSO 0.5% OT-001662, DMSO 0.01% OT-001666)
[10] = constitutive construct, no DRD, no ligand

B1: OT-001666 (Met; ER (305-549 of WT, L384M, N413D, M421G, G521R, Y537S); Histidine; CD40L; stop) (ligand)
chain: MSLALSLTADQMVSALLDAEPPILYSEYDPTRPFSEASMMGLLTNLADRELVHMINWAKRVPGFVDLTLHDQVHLLECAWMEILMIGLVWRSMEHPGKLLFAPNLLLDRDQGKCVEGGVEIFDMLLATSSRFRMMNLQGEEFVCLKSIILLNSGVYTFLSSTLKSLEEKDHIHRVLDKITDTLIHLMAKAGLTLQQQHQRLAQLLLILSHIRHMSNKRMEHLYSMKCKNVVPLSDLLLEMLDAHRLHMIETYNQTSPRSAATGLPISMKIFMYLLTVFLITQMIGSALFAVYLHRRLDKIEDERNLHEDFVFMKTIQRCNTGERSLSLLNCEEIKSQFEGFVKDIMLNKEETKKENSFEMQKGDQNPQIAAHVISEASSKTTSVLQWAEKGYYTMSNNLVTLENGKQLTVKRQGLYYIYAQVTFCSNREASSQAPFIASLCLKSPGRFERILLRAANTHSSAKPCGQQSIHLGGVFELQPGASVFVNVTDPSQVSHGTGFTSFGLLKL
% CD40L positive cells ([1]; 2 μL virus, BZD 0.05 nM): 0.69%
% CD40L positive cells ([1]; 2 μL virus, BZD 0.5 nM): 0.52%
% CD40L positive cells ([1]; 2 μL virus, BZD 5 nM): 0.71%
% CD40L positive cells ([1]; 2 μL virus, BZD 50 nM): 3.32%
% CD40L positive cells ([1]; 2 μL virus, BZD 500 nM): 60%
% CD40L positive cells ([1]; 10 μL virus, BZD 0.05 nM): 0.5%
% CD40L positive cells ([1]; 10 μL virus, BZD 0.5 nM): 0.2%
% CD40L positive cells ([1]; 10 μL virus, BZD 5 nM): 0.23%
% CD40L positive cells ([1]; 10 μL virus, BZD 50 nM): 17.7%
% CD40L positive cells ([1]; 10 μL virus, BZD 500 nM): 68.5%
CD40L positive percent of live cells [2, 8]: 38.4%
Geometric Mean of CD40L fluorescent intensity [2, 8]: 421
CD40L positive percent of live cells [2, 9]: 0.024%
Geometric Mean of CD40L fluorescent intensity [2, 9]: 21.5
Soluble CD40L [3]: 1824.7 pg/mL
CD40L MFI ([4]; +Ligand (50 μM TMP OT-001662; 0.5 μM Bazedoxifene OT-001666)): 33.1
CD40L MFI ([4]; Vehicle): 35.4
% CD40L positive T cells, dose response ([5]; increasing concentrations of Bazedoxifene): dose dependent increase
Raloxifene dependent expression ([5]; increasing concentrations of Raloxifene): observed only at the 1 μM dose

B2: OT-001661: constitutively expressed full length CD40L construct (protein)
chain: MHMIETYNQTSPRSAATGLPISMKIFMYLLTVFLITQMIGSALFAVYLHRRLDKIEDERNLHEDFVFMKTIQRCNTGERSLSLLNCEEIKSQFEGFVKDIMLNKEETKKENSFEMQKGDQNPQIAAHVISEASSKTTSVLQWAEKGYYTMSNNLVTLENGKQLTVKRQGLYYIYAQVTFCSNREASSQAPFIASLCLKSPGRFERILLRAANTHSSAKPCGQQSIHLGGVFELQPGASVFVNVTDPSQVSHGTGFTSFGLLKL
CD40L positive percent of live cells [2, 10]: 99.4%
Geometric Mean of CD40L fluorescent intensity [2, 10]: 10075
CD40L expression relative to untransduced cells ([2]; constitutive construct): higher than untransduced cells
Soluble CD40L [3]: 9341.40 pg/mL
CD40L positive ([6]; All Cells): 98%
MFI ([6]; All Cells): 20451
CD40L positive ([6]; CD4+): 98.7%
MFI ([6]; CD4+): 24489
CD40L positive ([6]; CD8+): 97.8%
MFI ([6]; CD8+): 14352
Cytokine Production IFNg ([7]; DMSO): 12973 pg/mL
Cytokine Production IL12 ([7]; DMSO): 58.935 pg/mL
Cytokine Production TNFa ([7]; DMSO): 456.3242 pg/mL
Cytokine Production IFNg ([7]; TMP): 10939.9 pg/mL
Cytokine Production IL12 ([7]; TMP): 86.229 pg/mL
Cytokine Production TNFa ([7]; TMP): 440.0804 pg/mL
